Drawing on patent US20150376264A1, this text covers Fluorescence reading (luciferase assay), EC50 (Baf3-LepR cell proliferation, AlamarBlue) and Fluorescent reading (AlamarBlue) for two substances.

Common to all, as to experiment: cell-based or functional assay
Test [1] has as its target relaxin receptor (LGR7).
Test [2] concerns the target relaxin receptor (LGR7). The source holds these as a separate data set.
The target of a further test is Leptin receptor.

Several values for one entry are separate records, joined by “and”; a condition that tells them apart may be missing. Identical values can stand only once. Like-named read-outs stand apart in the source and are kept apart here.

Regarding Relaxin-2 (ligand), in the test with relaxin receptor (LGR7) [1], the Fluorescence reading (luciferase assay) at 0.00035 uM came out at 14600; the Fluorescence reading (luciferase assay) at 0.003153 uM worked out at 24500; the Fluorescence reading (luciferase assay) at 0.00946 uM is 30200 and 24900 and 28500. Further, in the test with relaxin receptor (LGR7) [2], the Fluorescence reading (luciferase assay) at 0.000000481 uM was 1440 and 480 and 560; the Fluorescence reading (luciferase assay) at 0.00000144 uM was 2880 and 2160 and 1280; the Fluorescence reading (luciferase assay) at 0.00000433 uM is 4400 and 2400; the Fluorescence reading (luciferase assay) at 0.000013 uM was 10800 and 8960 and 9840. In the test with relaxin receptor (LGR7) [2], the Fluorescence reading (luciferase assay) at 0.0000389 uM was 12100 and 7120 and 12800; the Fluorescence reading (luciferase assay) at 0.000117 uM is 18500 and 18200; the Fluorescence reading (luciferase assay) at 0.00035 uM is 21500 and 19100; the Fluorescence reading (luciferase assay) at 0.001051 uM is 29000 and 26800. In addition, the Fluorescence reading (luciferase assay) at 0.003153 uM with relaxin receptor (LGR7) [2] was 23300 and 23700.

As for “human leptin (R&D) (from UniProt P41159 22-167) (ligand)”, in the test with Leptin receptor, the EC50 (Baf3-LepR cell proliferation, AlamarBlue) turned out to be 0.352 nM; the Fluorescent reading (AlamarBlue) at 0.01 pg/ml (6.25E-08 nM) is 2500 and 2520; the Fluorescent reading (AlamarBlue) at 0.1 pg/ml came to 1700; the Fluorescent reading (AlamarBlue) at 0.1 pg/ml (6.25E-07 nM) was 2010. In the test with Leptin receptor, the Fluorescent reading (AlamarBlue) at 10 pg/ml was determined as 924; the Fluorescent reading (AlamarBlue) at 10 pg/ml (6.25E-05 nM) was determined as 2110; the Fluorescent reading (AlamarBlue) at 100 pg/ml (6.25E-03 nM) was 725 and 1740; the Fluorescent reading (AlamarBlue) at 1000 pg/ml (0.0625 nM) was 7000 and 5190. For the same substance, in the test with Leptin receptor, the Fluorescent reading (AlamarBlue) at 10000 pg/ml (0.625 nM) was 26000 and 16500; the Fluorescent reading (AlamarBlue) at 100000 pg/ml (6.25 nM) was 29000 and 15300; the Fluorescent reading (AlamarBlue) at 1000000 pg/ml (62.5 nM) was 33500 and 26400; the Fluorescent reading (AlamarBlue) at 10000000 pg/ml (6250 nM) was 38300 and 32400.
